Values belong to the binder of their own block, whether it stands above or below them.
Legend:
[1] = target: T1, O8; test: two-hybrid library CCNG1;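 also: natural log of median RNA to DNA barcode read ratio; higher means stronger binding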
T1 chain: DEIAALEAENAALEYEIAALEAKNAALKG

[2] = target: T2, O9; test: two-hybrid library CCNG1;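 also: natural log of median RNA to DNA barcode read ratio; higher means stronger binding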
T2 chain: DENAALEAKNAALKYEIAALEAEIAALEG

[3] = target: T3, 4H348-bN; test: two-hybrid library CCNG1;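 also: natural log of median RNA to DNA barcode read ratio; higher means stronger binding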
T3 chain: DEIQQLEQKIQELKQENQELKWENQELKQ

[4] = target: T4, 4H40-bN; test: two-hybrid library CCNG1;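 also: natural log of median RNA to DNA barcode read ratio; higher means stronger binding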
T4 chain: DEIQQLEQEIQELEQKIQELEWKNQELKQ

[5] = target: T5, 4H477-bN; test: two-hybrid library CCNG1;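 also: natural log of median RNA to DNA barcode read ratio; higher means stronger binding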
T5 chain: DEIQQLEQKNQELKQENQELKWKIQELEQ

[6] = target: T6, 4H492-bN; test: two-hybrid library CCNG1;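 also: natural log of median RNA to DNA barcode read ratio; higher means stronger binding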
T6 chain: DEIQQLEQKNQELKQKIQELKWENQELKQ

[7] = target: T7, 4H741-bN; test: two-hybrid library CCNG1
T7 chain: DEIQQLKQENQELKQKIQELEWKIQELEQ

[8] = target: T8, 4H754-bH; test: two-hybrid library CCNG1
T8 chain: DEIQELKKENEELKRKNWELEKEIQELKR

[9] = target: T9, 4H338-bH; test: two-hybrid library CCNG1
T9 chain: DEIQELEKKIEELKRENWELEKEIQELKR

[10] = target: T10, 4H3427-bH; test: two-hybrid library CCNG1
T10 chain: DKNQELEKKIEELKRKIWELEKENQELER

[11] = target: T11, 4H3782-bH; test: two-hybrid library CCNG1
T11 chain: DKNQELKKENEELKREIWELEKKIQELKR

[12] = target: T12, 4H3855-bH; test: two-hybrid library CCNG1
T12 chain: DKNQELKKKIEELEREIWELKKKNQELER

[13] = target: T13, 4H3926-bA; test: two-hybrid library CCNG1
T13 chain: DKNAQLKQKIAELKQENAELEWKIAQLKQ

[14] = target: T14, 4H4001-bH; test: two-hybrid library CCNG1
T14 chain: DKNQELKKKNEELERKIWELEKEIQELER

[15] = target: T15, 4H454-bH; test: two-hybrid library CCNG1
T15 chain: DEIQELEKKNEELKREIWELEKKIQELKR

[16] = target: T16, 4H568-bH; test: two-hybrid library CCNG1
T16 chain: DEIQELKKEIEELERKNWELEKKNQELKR

[17] = target: T17, 4H607-bH; test: two-hybrid library CCNG1
T17 chain: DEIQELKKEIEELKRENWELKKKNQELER

[18] = target: T18, 4H687-bH; test: two-hybrid library CCNG1
T18 chain: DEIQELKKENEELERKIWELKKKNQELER

[19] = target: T19, 4H717-bH; test: two-hybrid library CCNG1
T19 chain: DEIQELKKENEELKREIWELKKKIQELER

[20] = target: T20, 4H72-bH; test: two-hybrid library CCNG1
T20 chain: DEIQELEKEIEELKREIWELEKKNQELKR

[21] = target: T21, 4H797-bH; test: two-hybrid library CCNG1
T21 chain: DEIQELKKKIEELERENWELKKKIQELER

[22] = target: T22, 4H883-bH; test: two-hybrid library CCNG1
T22 chain: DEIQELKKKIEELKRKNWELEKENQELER

[23] = target: T23, 4H908-bH; test: two-hybrid library CCNG1
T23 chain: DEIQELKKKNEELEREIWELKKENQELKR

[24] = target: T24, 4H918-bH; test: two-hybrid library CCNG1
T24 chain: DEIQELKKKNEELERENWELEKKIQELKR

[25] = target: T25, 4H953-bH; test: two-hybrid library CCNG1
T25 chain: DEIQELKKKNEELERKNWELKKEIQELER

[26] = target: T26, 4H967-bH; test: two-hybrid library CCNG1
T26 chain: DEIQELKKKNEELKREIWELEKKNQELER

[27] = target: T27, P7; test: two-hybrid library CC1
T27 chain: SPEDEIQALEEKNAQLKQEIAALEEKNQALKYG

[28] = target: T28, P7mS; test: two-hybrid library CC1; conditions: mean of both orientations
T28 chain: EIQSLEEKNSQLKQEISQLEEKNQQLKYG

[29] = target: T29, P8; test: two-hybrid library CC1; conditions: mean of both orientations
T29 chain: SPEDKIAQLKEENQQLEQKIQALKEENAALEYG

[30] = target: T30, P8mS; test: two-hybrid library CC1; conditions: mean of both orientations
T30 chain: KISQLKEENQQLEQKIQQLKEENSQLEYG

[31] = target: T31, P9; test: two-hybrid library CC1; conditions: mean of both orientations
T31 chain: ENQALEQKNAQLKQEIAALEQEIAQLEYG

[32] = target: T32, 4H319-bH; test: two-hybrid library CCNG1
T32 chain: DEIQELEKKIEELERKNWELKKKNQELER

[33] = target: T33, 4H3277-bH; test: two-hybrid library CCNG1
T33 chain: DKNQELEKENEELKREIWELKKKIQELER

[34] = target: T34, 4H348-bH; test: two-hybrid library CCNG1
T34 chain: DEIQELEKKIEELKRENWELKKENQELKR

[35] = target: T35, 4H40-bH; test: two-hybrid library CCNG1
T35 chain: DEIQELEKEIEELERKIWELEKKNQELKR

[36] = target: T36, 4H477-bH; test: two-hybrid library CCNG1
T36 chain: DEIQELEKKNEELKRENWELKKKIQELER

[37] = target: T37, 4H492-bH; test: two-hybrid library CCNG1
T37 chain: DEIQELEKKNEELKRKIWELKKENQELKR

[38] = target: T38, 4H741-bH; test: two-hybrid library CCNG1
T38 chain: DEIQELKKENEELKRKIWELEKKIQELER

[39] = target: T39, APC3645-AA; test: two-hybrid library CCmax
T39 chain: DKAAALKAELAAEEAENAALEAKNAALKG

[40] = target: T40, APC4011-AA; test: two-hybrid library CCmax; conditions: mean of both orientations
T40 chain: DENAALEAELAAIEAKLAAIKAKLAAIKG

[41] = target: T41, APC4264-AA; test: two-hybrid library CCmax; conditions: mean of both orientations
T41 chain: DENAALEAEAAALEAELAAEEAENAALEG

[42] = target: T42, APC4436-AA; test: two-hybrid library CCmax; conditions: mean of both orientations
T42 chain: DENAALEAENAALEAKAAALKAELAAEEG

[43] = target: T43, APC5383-AA; test: two-hybrid library CCmax; conditions: mean of both orientations
T43 chain: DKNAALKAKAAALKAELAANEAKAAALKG

[44] = target: T44, APC6108-AA; test: two-hybrid library CCmax; conditions: mean of both orientations
T44 chain: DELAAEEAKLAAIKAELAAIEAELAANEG

[45] = target: T45, APC7099-AA; test: two-hybrid library CCmax; conditions: mean of both orientations
T45 chain: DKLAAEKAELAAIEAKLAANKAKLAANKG

[46] = target: T46, APC8191-AA; test: two-hybrid library CCmax; conditions: mean of both orientations
T46 chain: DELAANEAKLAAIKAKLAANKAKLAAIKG

[47] = target: T47, APC8910-AA; test: two-hybrid library CCmax; conditions: mean of both orientations
T47 chain: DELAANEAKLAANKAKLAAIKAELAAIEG

[48] = target: T48, APC9096-AA; test: two-hybrid library CCmax; conditions: mean of both orientations
T48 chain: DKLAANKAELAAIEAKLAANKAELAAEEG

[49] = target: T49, APC9319-AA; test: two-hybrid library CCmax; conditions: mean of both orientations
T49 chain: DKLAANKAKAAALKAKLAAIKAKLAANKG

[50] = target: T50, 4H3297-bA; test: two-hybrid library CCNG1
T50 chain: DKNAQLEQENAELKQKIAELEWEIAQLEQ

[51] = target: T51, 4H3364-bA; test: two-hybrid library CCNG1
T51 chain: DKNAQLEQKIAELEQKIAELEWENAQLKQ

[52] = target: T52, 4H3381-bA; test: two-hybrid library CCNG1
T52 chain: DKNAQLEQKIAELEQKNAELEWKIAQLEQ

[53] = target: T53, 4H349-bA; test: two-hybrid library CCNG1
T53 chain: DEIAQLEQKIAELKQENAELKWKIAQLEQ

[54] = target: T54, 4H56-bA; test: two-hybrid library CCNG1
T54 chain: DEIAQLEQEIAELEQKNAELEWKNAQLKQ

[55] = target: T55, 4H730-bA; test: two-hybrid library CCNG1
T55 chain: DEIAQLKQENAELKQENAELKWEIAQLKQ

[56] = target: T56, 4H796-bA; test: two-hybrid library CCNG1
T56 chain: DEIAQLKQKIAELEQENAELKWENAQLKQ

[57] = target: T57, 4H932-bA; test: two-hybrid library CCNG1
T57 chain: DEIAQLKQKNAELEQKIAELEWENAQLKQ

[58] = target: T58, 4H949-bA; test: two-hybrid library CCNG1
T58 chain: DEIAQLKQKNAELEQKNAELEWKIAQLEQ

[59] = target: T59, O9; test: two-hybrid library CC0; conditions: mean of both orientations
T59 chain: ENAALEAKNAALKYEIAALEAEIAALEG

Binder: DEIQQLEQKIQELKQENQELKWENQELKQ [4H348-bN]
- interaction score [3]: -1.05
- interaction score [4]: -1
- interaction score [5]: -1.82
- interaction score [6]: 0.214
- interaction score [7]: -0.495
- interaction score [8]: -0.689

Binder: DEIQELEKKIEELKRENWELEKEIQELKR [4H338-bH]
- interaction score [9]: 1.76
- interaction score [10]: 0.373
- interaction score [11]: -0.321
- interaction score [12]: 0.141
- interaction score [13]: 1.81
- interaction score [14]: 0.346
- interaction score [15]: 1.38
- interaction score [16]: 0.785
- interaction score [17]: 0.393
- interaction score [18]: -0.366
- interaction score [19]: 0.186
- interaction score [20]: -1.44
- interaction score [8]: 0.366
- interaction score [21]: -0.318
- interaction score [22]: 0.0489
- interaction score [23]: -3.02
- interaction score [24]: -0.137
- interaction score [25]: 1.25
- interaction score [26]: 0.908

Binder: SPEDEIQALEEKNAQLKQEIAALEEKNQALKYG [P7]
- interaction score [27]: -2.29
- interaction score [28]: -2.52
- interaction score [29]: 0.391
- interaction score [30]: 0.223
- interaction score [31]: -2.07

Binder: DEIQELEKKIEELERKNWELKKKNQELER [4H319-bH]
- interaction score [32]: 1.04
- interaction score [33]: -0.168
- interaction score [34]: 0.143
- interaction score [35]: -2.01
- interaction score [36]: -0.71
- interaction score [37]: -0.172
- interaction score [38]: 0.321

Binder: ENAALEAKNAALKYEIAALEAEIAALEG [O9]
- interaction score [59]: -2.72

Binder: DEIQELEKKIEELKRENWELKKENQELKR [4H348-bH]
- interaction score [34]: 0.666
- interaction score [35]: -0.14
- interaction score [36]: 0.107
- interaction score [37]: -0.683
- interaction score [38]: 1.04

Results, then the binder that gave them:

- interaction score [1]: -2.07
- interaction score [2]: -1.9
Binder: DEIAALEAENAALEYEIAALEAKNAALKG [O8]

- interaction score [39]: -1.12
- interaction score [40]: -1.34
- interaction score [41]: -1.56
- interaction score [42]: -2.1
- interaction score [43]: -1.51
- interaction score [44]: -1.68
- interaction score [45]: -1.63
- interaction score [46]: -1.7
- interaction score [47]: -1.79
- interaction score [48]: -1.71
- interaction score [49]: -1.55
Binder: DKAAALKAELAAEEAENAALEAKNAALKG [APC3645-AA]

- interaction score [50]: 1.19
- interaction score [51]: -0.887
- interaction score [52]: -0.995
- interaction score [53]: -1.15
- interaction score [54]: -0.874
- interaction score [55]: -0.992
- interaction score [56]: -1.18
- interaction score [57]: -0.454
- interaction score [58]: -0.949
Binder: DKNAQLEQENAELKQKIAELEWEIAQLEQ [4H3297-bA]
